# Laboratory results published in patent US20240049668A1 (VILMORIN AND CIE, published 2024).
# Substitutions are numbered along the chain they refer to.
# T1: Movement Protein of ToBRFV (Tomato Brown Rugose Fruit Virus …, UniProt A0A0S2SZW1 1-266)
# T1 sequence: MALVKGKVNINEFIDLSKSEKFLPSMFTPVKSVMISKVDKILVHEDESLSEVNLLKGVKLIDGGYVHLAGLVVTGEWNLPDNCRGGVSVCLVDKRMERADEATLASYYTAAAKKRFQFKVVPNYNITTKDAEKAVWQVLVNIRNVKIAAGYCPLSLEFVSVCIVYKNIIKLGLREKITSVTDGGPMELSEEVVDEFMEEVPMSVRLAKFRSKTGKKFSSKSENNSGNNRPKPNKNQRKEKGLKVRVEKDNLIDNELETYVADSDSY
# B1: TM-2-2 variant pJL 468_M (848 M) (receptor)
# chain: MAEILLTSVINKSVEIAGNLLIQEGKRLYWLKEDIDWLQREMRHIRSYVDNAKAKEAGGDSRVKNLLKDIQELAGDVEDLLDDFLPKIQQSNKFNYCLKRSSFADEFAMEIEKIKRRVVDIDRIRKTYNIIDTDNNNDDCVLLDRRRLFLHADETEIIGLDDDFNMLQAKLLNQDLHYGVVSIVGMPGLGKTTLAKKLYRLIRDQFECSGLVYVSQQPRASEILLDIAKQIGLTEQKMKENLEDNLRSLLKIKRYVILLDDIWDVEIWDDLKLVLPECDSKVGSRMIITSRNSNVGRYIGGESSLHALQPLESEKSFELFTKKIFNFDDNNSWANASPDLVNIGRNIVGRCGGIPLAIVVTAGMLRARERTEHAWNRVLESMGHKVQDGCAKVLALSYNDLPIASRPCFLYFGLYPEDHEIRAFDLINMWIAEKFIVVNSGNRREAEDLAEDVLNDLVSRNLIQLAKRTYNGRISSCRIHDLLHSLCVDLAKESNFFHTAHDAFGDPGNVARLRRITFYSDNVMIEFFRSNPKLEKLRVLFCFAKDPSIFSHMAYFDFKLLHTLVVVMSQSFQAYVTIPSKFGNMTCLRYLRLEGNICGKLPNSIVKLTRLETIDIDRRSLIQPPSGVWESKHLRHLCYRDYGQACNSCFSISSFYPNIYSLHPNNLQTLMWIPDKFFEPRLLHRLINLRKLGILGVSNSTVKMLSIFSPVLKALEVLKLSFSSDPSEQIKLSSYPHIAKLHLNVNRTMALNSQSFPPNLIKLTLAYFSVDRYILAVLKTFPKLRKLKMFICKYNEEKMDLSGEANGYSFPQLEVLHIHSPNGLSEVTCTDDVSMPKLKKLLLTGFHMRISLSERLKKLSK
# B2: TM-2-2 variant pJL 468_T (848 T) (receptor)
# chain: B1 chain with M848T
# B3: TM-2-2 variant pJL 468_S (848 S) (receptor)
# chain: B1 chain with M848S
# B4: TM-2-2 variant pJL 468_N (848 N) (receptor)
# chain: B1 chain with M848N
# B5: TM-2-2 variant pJL 468_Q (848 Q) (receptor)
# chain: B1 chain with M848Q
# B6: TM-2-2 variant pJL 468_R (848 R) (receptor)
# chain: B1 chain with M848R
# B7: TM-2-2 variant pJL 468_P (848 P) (receptor)
# chain: B1 chain with M848P
# B8: TM-2-2 variant pJL 476_S (822 S, 848 R) (receptor)
# chain: B1 chain with N822S, M848R
# B9: TM-2-2 variant pJL 477_H (822 H, 848 R) (receptor)
# chain: B1 chain with N822H, M848R
# B10: TM-2-2 variant pJL 476_F (822 F, 848 R) (receptor)
# chain: B1 chain with N822F, M848R
# B11: TM-2-2 variant pJL 477_D (822 D, 848 R) (receptor)
# chain: B1 chain with N822D, M848R
# B12: TM-2-2 variant pJL 476_R (822 R, 848 R) (receptor)
# chain: B1 chain with N822R, M848R
# B13: TM-2-2 variant pJL 476_T (822 T, 848 R) (receptor)
# chain: B1 chain with N822T, M848R
# B14: TM-2-2 variant pJL 476_K (822 K, 848 R) (receptor)
# chain: B1 chain with N822K, M848R
# B15: TM-2-2 variant pJL 476_C (822 C, 848 R) (receptor)
# chain: B1 chain with N822C, M848R
# B16: TM-2-2 variant pJL 476_I (822 I, 848 R) (receptor)
# chain: B1 chain with N822I, M848R
# Biological target: T1, Movement Protein of ToBRFV
# Assay: cell-based or functional assay
row,Binder,HR when expressed with MP Rugose [HR scale 0-4]
1,B1,< 1
2,B2,~1
3,B3,~1
4,B4,< 1
5,B5,< 1
6,B6,4
7,B7,< 1

# Biological target: T1, Movement Protein of ToBRFV
# Assay: cell-based or functional assay
# Remark: another data set of the same source
row,Binder,HR to MP Rugose [HR scale 0-4]
1,B8,4
2,B9,< 1
3,B10,2
4,B11,< 1
5,B12,0
6,B13,< 1
7,B14,0
8,B15,2
9,B16,0
